Source: the supplement of paper PMC10567573

B1: TRIM63 (parent)
chain: FRCPTCRHEVIMDRHGVYGLQRNL
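Also: lentivirally expressed fusions sorted by FACS into six bins by GFP to DsRed ratio, PSI derived from sequencing read proportions per bin multiplied by bin number.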

Variants of: B1
Experiment: protein stability index of a GFP-peptide fusion (GPS, HEK-293T) (PSI 1-6); higher = more stable
Conditions: c terminus: a fixed tail appended
FRWPTCRHEVIMDRHGVYGLQRNL [C3W] showed a protein stability index of 2.18. Work on FRIPTCRHEVIMDRHGVYGLQRNL [C3I] yielded a protein stability index of 2.6. For FRNPTCRHEVIMDRHGVYGLQRNL [C3N], the protein stability index was 3.22. In the case of FRGPTCRHEVIMDRHGVYGLQRNL [C3G], the protein stability index is reported as 2.15. Work on FRLPTCRHEVIMDRHGVYGLQRNL [C3L] yielded a protein stability index of 2.9. With FRHPTCRHEVIMDRHGVYGLQRNL [C3H] the protein stability index was 4.77. In the case of FRCPTCRHDVIMDRHGVYGLQRNL [E9D], the protein stability index is reported as 1.79. For FRCPTCRHHVIMDRHGVYGLQRNL [E9H], the protein stability index was 2.63. FRCPTCRHFVIMDRHGVYGLQRNL [E9F] gave a protein stability index of 2.14. Work on FRCPTCRHPVIMDRHGVYGLQRNL [E9P] yielded a protein stability index of 1.94. FRCPTCRHNVIMDRHGVYGLQRNL [E9N] gave a protein stability index of 2.69. FRCPTCRHYVIMDRHGVYGLQRNL [E9Y] gave a protein stability index of 1.86. Work on FRCPTCRHIVIMDRHGVYGLQRNL [E9I] yielded a protein stability index of 1.43. FRCPTCRHWVIMDRHGVYGLQRNL [E9W] showed a protein stability index of 2.12. FRCPTCRHRVIMDRHGVYGLQRNL [E9R] showed a protein stability index of 1.47. FRCPTCRHAVIMDRHGVYGLQRNL [E9A] gave a protein stability index of 2.48. Variant FRCPTCRHKVIMDRHGVYGLQRNL [E9K] has a protein stability index of 1.01. In the case of FRCPTCRHQVIMDRHGVYGLQRNL [E9Q], the protein stability index is reported as 2.63. For FRCPTCRHCVIMDRHGVYGLQRNL [E9C], the protein stability index was 2.56. Variant FRCPTCRHVVIMDRHGVYGLQRNL [E9V] has a protein stability index of 3.23. With FRCPTCRHTVIMDRHGVYGLQRNL [E9T] the protein stability index was 2.34. FRCPTCRHLVIMDRHGVYGLQRNL [E9L] gave a protein stability index of 2.99. In the case of FRCPTCRHMVIMDRHGVYGLQRNL [E9M], the protein stability index is reported as 2.06. With FRCPTCGHEVIMDRHGVYGLQRNL [R7G] the protein stability index was 3.57. Variant FRCPTCFHEVIMDRHGVYGLQRNL [R7F] has a protein stability index of 2.42. With FRCPTCSHEVIMDRHGVYGLQRNL [R7S] the protein stability index was 2.24. FRCPTCTHEVIMDRHGVYGLQRNL [R7T] showed a protein stability index of 2.35. For FRCPTCPHEVIMDRHGVYGLQRNL [R7P], the protein stability index was 2.36. With FRCPTCCHEVIMDRHGVYGLQRNL [R7C] the protein stability index was 2.24. Variant FRCPTCMHEVIMDRHGVYGLQRNL [R7M] has a protein stability index of 2.42. Variant FRCPTCDHEVIMDRHGVYGLQRNL [R7D] has a protein stability index of 3.28. In the case of FRCPTCAHEVIMDRHGVYGLQRNL [R7A], the protein stability index is reported as 2.63. With FRCPTCKHEVIMDRHGVYGLQRNL [R7K] the protein stability index was 3.15. FRCPTCNHEVIMDRHGVYGLQRNL [R7N] gave a protein stability index of 3. For FRCPTCQHEVIMDRHGVYGLQRNL [R7Q], the protein stability index was 2.48. With FRCPTCHHEVIMDRHGVYGLQRNL [R7H] the protein stability index was 2.46. For FRCPTCYHEVIMDRHGVYGLQRNL [R7Y], the protein stability index was 1.94. FRCPTCVHEVIMDRHGVYGLQRNL [R7V] gave a protein stability index of 2.93. Work on FRCPTCEHEVIMDRHGVYGLQRNL [R7E] yielded a protein stability index of 2.09. In the case of FRCPTCWHEVIMDRHGVYGLQRNL [R7W], the protein stability index is reported as 2.12. Variant FRCPTCLHEVIMDRHGVYGLQRNL [R7L] has a protein stability index of 2.13. Variant FRCPTCRWEVIMDRHGVYGLQRNL [H8W] has a protein stability index of 1.72. Work on FRCPTCRSEVIMDRHGVYGLQRNL [H8S] yielded a protein stability index of 1.96. FRCPTCREEVIMDRHGVYGLQRNL [H8E] gave a protein stability index of 1.81. Work on FRCPTCRPEVIMDRHGVYGLQRNL [H8P] yielded a protein stability index of 3.14. Variant FRCPTCRKEVIMDRHGVYGLQRNL [H8K] has a protein stability index of 2.02. In the case of FRCPTCRYEVIMDRHGVYGLQRNL [H8Y], the protein stability index is reported as 2.34. FRCPTCRFEVIMDRHGVYGLQRNL [H8F] gave a protein stability index of 2.64. Variant FRCPTCRCEVIMDRHGVYGLQRNL [H8C] has a protein stability index of 2.52. Work on FRCPTCRNEVIMDRHGVYGLQRNL [H8N] yielded a protein stability index of 2.24. For FRCPTCRQEVIMDRHGVYGLQRNL [H8Q], the protein stability index was 1.91. FRCPTCRMEVIMDRHGVYGLQRNL [H8M] gave a protein stability index of 3.58. In the case of FRCPTCRREVIMDRHGVYGLQRNL [H8R], the protein stability index is reported as 1.89. In the case of FRCPTCRTEVIMDRHGVYGLQRNL [H8T], the protein stability index is reported as 2.31. FRCPTCRAEVIMDRHGVYGLQRNL [H8A] gave a protein stability index of 2.6. In the case of FRCPTCRDEVIMDRHGVYGLQRNL [H8D], the protein stability index is reported as 1.77. Work on FRCPTCRLEVIMDRHGVYGLQRNL [H8L] yielded a protein stability index of 2.39. FRCPTCRIEVIMDRHGVYGLQRNL [H8I] gave a protein stability index of 2.11. FRCPTCRHEVIHDRHGVYGLQRNL [M12H] showed a protein stability index of 2.06. In the case of FRCPTCRHEVIQDRHGVYGLQRNL [M12Q], the protein stability index is reported as 2.29. Work on FRCPTCRHEVISDRHGVYGLQRNL [M12S] yielded a protein stability index of 3.59. Variant FRCPTCRHEVIRDRHGVYGLQRNL [M12R] has a protein stability index of 2.11. FRCPTCRHEVIADRHGVYGLQRNL [M12A] gave a protein stability index of 2.35. In the case of FRCPTCRHEVIWDRHGVYGLQRNL [M12W], the protein stability index is reported as 2.17. With FRCPTCRHEVIYDRHGVYGLQRNL [M12Y] the protein stability index was 1.73. Work on FRCPTCRHEVITDRHGVYGLQRNL [M12T] yielded a protein stability index of 2.59. FRCPTCRHEVIDDRHGVYGLQRNL [M12D] gave a protein stability index of 1.99. Variant FRCPTCRHEVIFDRHGVYGLQRNL [M12F] has a protein stability index of 2.18. Variant FRCPTCRHEVIVDRHGVYGLQRNL [M12V] has a protein stability index of 2.98. FRCPTCRHEVILDRHGVYGLQRNL [M12L] showed a protein stability index of 2.66. With FRCPTCRHEVICDRHGVYGLQRNL [M12C] the protein stability index was 2.02. Variant FRCPTCRHEVIPDRHGVYGLQRNL [M12P] has a protein stability index of 1.62. Variant FRCPTCRHEVIGDRHGVYGLQRNL [M12G] has a protein stability index of 2.8. FRCPTCRHEVIEDRHGVYGLQRNL [M12E] showed a protein stability index of 2.19. FRCPTCRHEVIIDRHGVYGLQRNL [M12I] gave a protein stability index of 3.22. Work on FRCPTWRHEVIMDRHGVYGLQRNL [C6W] yielded a protein stability index of 1.77. Variant FRCPTDRHEVIMDRHGVYGLQRNL [C6D] has a protein stability index of 2.62. FRCPTKRHEVIMDRHGVYGLQRNL [C6K] gave a protein stability index of 2.15. For FRCPTIRHEVIMDRHGVYGLQRNL [C6I], the protein stability index was 1.89. For FRCPTERHEVIMDRHGVYGLQRNL [C6E], the protein stability index was 2.61. For FRCPTARHEVIMDRHGVYGLQRNL [C6A], the protein stability index was 2.57. FRCPTNRHEVIMDRHGVYGLQRNL [C6N] showed a protein stability index of 2.38. In the case of FRCPTPRHEVIMDRHGVYGLQRNL [C6P], the protein stability index is reported as 2.89. Work on FRCPTHRHEVIMDRHGVYGLQRNL [C6H] yielded a protein stability index of 1.91. Work on FRCPTRRHEVIMDRHGVYGLQRNL [C6R] yielded a protein stability index of 2.27. In the case of FRCPTVRHEVIMDRHGVYGLQRNL [C6V], the protein stability index is reported as 2.51. For FRCPTMRHEVIMDRHGVYGLQRNL [C6M], the protein stability index was 2.06. In the case of FRCPTLRHEVIMDRHGVYGLQRNL [C6L], the protein stability index is reported as 2.16. Variant FRCPTSRHEVIMDRHGVYGLQRNL [C6S] has a protein stability index of 2.09. Variant FRCPTYRHEVIMDRHGVYGLQRNL [C6Y] has a protein stability index of 2.37. Variant FRCPTTRHEVIMDRHGVYGLQRNL [C6T] has a protein stability index of 2.97. Variant FRCPTGRHEVIMDRHGVYGLQRNL [C6G] has a protein stability index of 2.31. Work on FRCPTFRHEVIMDRHGVYGLQRNL [C6F] yielded a protein stability index of 1.63. FRCPTQRHEVIMDRHGVYGLQRNL [C6Q] gave a protein stability index of 2.73.
